Paper PMC10786891, “Massively parallel profiling of RNA-targeting CRISPR-Cas13d”

T1: EsCas13d, nuclease-dead (Eubacterium siraeum, UniProt B0MS50, R295A;H300A;R849A;H854A)
T1 sequence: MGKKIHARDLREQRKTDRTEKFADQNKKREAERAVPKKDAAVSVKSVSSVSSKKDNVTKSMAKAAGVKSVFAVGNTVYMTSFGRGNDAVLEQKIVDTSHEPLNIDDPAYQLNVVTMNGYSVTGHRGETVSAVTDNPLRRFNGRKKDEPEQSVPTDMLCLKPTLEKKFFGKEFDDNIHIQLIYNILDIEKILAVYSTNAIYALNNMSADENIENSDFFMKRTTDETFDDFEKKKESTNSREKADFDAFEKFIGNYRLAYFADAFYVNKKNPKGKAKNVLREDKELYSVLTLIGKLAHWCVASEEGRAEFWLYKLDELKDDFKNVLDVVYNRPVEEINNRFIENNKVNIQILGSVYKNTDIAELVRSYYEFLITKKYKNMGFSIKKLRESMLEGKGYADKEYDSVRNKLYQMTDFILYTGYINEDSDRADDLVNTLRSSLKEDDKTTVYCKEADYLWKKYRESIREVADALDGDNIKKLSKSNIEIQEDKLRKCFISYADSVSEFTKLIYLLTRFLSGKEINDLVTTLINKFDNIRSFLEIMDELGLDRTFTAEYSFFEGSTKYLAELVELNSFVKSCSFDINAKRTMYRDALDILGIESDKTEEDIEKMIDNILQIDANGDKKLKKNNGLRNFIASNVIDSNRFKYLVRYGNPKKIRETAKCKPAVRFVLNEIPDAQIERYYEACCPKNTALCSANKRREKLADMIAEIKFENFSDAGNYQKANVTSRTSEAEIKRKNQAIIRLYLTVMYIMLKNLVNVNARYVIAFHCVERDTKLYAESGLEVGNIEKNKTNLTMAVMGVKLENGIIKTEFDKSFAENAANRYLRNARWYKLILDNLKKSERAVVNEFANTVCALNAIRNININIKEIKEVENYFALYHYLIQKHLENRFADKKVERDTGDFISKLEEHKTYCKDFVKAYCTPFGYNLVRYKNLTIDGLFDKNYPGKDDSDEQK

B1: target 1 C2U,G17C (mixed)
RNA 1: CACCCGUGCAAAAAUGCAGGGGUCUAAAACUGAGCGGAUAACCUCUCUAUGG
RNA 2: GGGAAUGGAUCCACAUCUACGAAUUCGUACCAUACAGAGGUUAUCCGCUUACCGAGAUCGGAAGAGCACACGU
B2: target 1 G15C,C21A (mixed)
RNA 1: CACCCGUGCAAAAAUGCAGGGGUCUAAAACUGAGCGGAUAACCUCUCUAUGG
RNA 2: GGGAAUGGAUCCACAUCUACGAAUUCGUACAAUAGACAGGUUAUCCGCUCACCGAGAUCGGAAGAGCACACGU
B3: target 1 insU 3' of 18,insC 3' of 9 (mixed)
RNA 1: CACCCGUGCAAAAAUGCAGGGGUCUAAAACUGAGCGGAUAACCUCUCUAUGG
RNA 2: GGGAAUGGAUCCACAUCUACGAAUUCGUACCAUAUGAGAGGUUACUCCGCUCACCGAGAUCGGAAGAGCACACGU
B4: target 1 insA 3' of 17,insU 3' of 7 (mixed)
RNA 1: CACCCGUGCAAAAAUGCAGGGGUCUAAAACUGAGCGGAUAACCUCUCUAUGG
RNA 2: GGGAAUGGAUCCACAUCUACGAAUUCGUACCAUAGAAGAGGUUAUCUCGCUCACCGAGAUCGGAAGAGCACACGU
B5: target 1 insG 3' of 18,insU 3' of 13 (mixed)
RNA 1: CACCCGUGCAAAAAUGCAGGGGUCUAAAACUGAGCGGAUAACCUCUCUAUGG
RNA 2: GGGAAUGGAUCCACAUCUACGAAUUCGUACCAUAGGAGAGUGUUAUCCGCUCACCGAGAUCGGAAGAGCACACGU
B6: target 1 insU 3' of 17,insA 3' of 6 (mixed)
RNA 1: CACCCGUGCAAAAAUGCAGGGGUCUAAAACUGAGCGGAUAACCUCUCUAUGG
RNA 2: GGGAAUGGAUCCACAUCUACGAAUUCGUACCAUAGUAGAGGUUAUCCAGCUCACCGAGAUCGGAAGAGCACACGU
B7: target 1 G5U,G12A (mixed)
RNA 1: CACCCGUGCAAAAAUGCAGGGGUCUAAAACUGAGCGGAUAACCUCUCUAUGG
RNA 2: GGGAAUGGAUCCACAUCUACGAAUUCGUACCAUAGAGAGAUUAUCCUCUCACCGAGAUCGGAAGAGCACACGU
B8: target 1 insU 3' of 17,insA 3' of 15 (mixed)
RNA 1: CACCCGUGCAAAAAUGCAGGGGUCUAAAACUGAGCGGAUAACCUCUCUAUGG
RNA 2: GGGAAUGGAUCCACAUCUACGAAUUCGUACCAUAGUAGAAGGUUAUCCGCUCACCGAGAUCGGAAGAGCACACGU
B9: target 1 A1U,U3G (mixed)
RNA 1: CACCCGUGCAAAAAUGCAGGGGUCUAAAACUGAGCGGAUAACCUCUCUAUGG
RNA 2: GGGAAUGGAUCCACAUCUACGAAUUCGUACCAUAGAGAGGUUAUCCGCGCUCCGAGAUCGGAAGAGCACACGU
B10: target 1 insG 3' of 14,insA 3' of 3 (mixed)
RNA 1: CACCCGUGCAAAAAUGCAGGGGUCUAAAACUGAGCGGAUAACCUCUCUAUGG
RNA 2: GGGAAUGGAUCCACAUCUACGAAUUCGUACCAUAGAGAGGGUUAUCCGCUACACCGAGAUCGGAAGAGCACACGU
B11: target 1 insU 3' of 17,insU 3' of 16 (mixed)
RNA 1: CACCCGUGCAAAAAUGCAGGGGUCUAAAACUGAGCGGAUAACCUCUCUAUGG
RNA 2: GGGAAUGGAUCCACAUCUACGAAUUCGUACCAUAGUAUGAGGUUAUCCGCUCACCGAGAUCGGAAGAGCACACGU
B12: target 1 insG 3' of 8,insA 3' of 2 (mixed)
RNA 1: CACCCGUGCAAAAAUGCAGGGGUCUAAAACUGAGCGGAUAACCUCUCUAUGG
RNA 2: GGGAAUGGAUCCACAUCUACGAAUUCGUACCAUAGAGAGGUUAUGCCGCUCAACCGAGAUCGGAAGAGCACACGU
B13: target 1 insA 3' of 10,insA 3' of 4 (mixed)
RNA 1: CACCCGUGCAAAAAUGCAGGGGUCUAAAACUGAGCGGAUAACCUCUCUAUGG
RNA 2: GGGAAUGGAUCCACAUCUACGAAUUCGUACCAUAGAGAGGUUAAUCCGCAUCACCGAGAUCGGAAGAGCACACGU
B14: target 1 insG 3' of 10,insC 3' of 1 (mixed)
RNA 1: CACCCGUGCAAAAAUGCAGGGGUCUAAAACUGAGCGGAUAACCUCUCUAUGG
RNA 2: GGGAAUGGAUCCACAUCUACGAAUUCGUACCAUAGAGAGGUUGAUCCGCUCACCCGAGAUCGGAAGAGCACACGU
B15: target 1 insG 3' of 10,insU 3' of 1 (mixed)
RNA 1: CACCCGUGCAAAAAUGCAGGGGUCUAAAACUGAGCGGAUAACCUCUCUAUGG
RNA 2: GGGAAUGGAUCCACAUCUACGAAUUCGUACCAUAGAGAGGUUGAUCCGCUCAUCCGAGAUCGGAAGAGCACACGU
B16: target 1 insG 3' of 2,insU 3' of 2 (mixed)
RNA 1: CACCCGUGCAAAAAUGCAGGGGUCUAAAACUGAGCGGAUAACCUCUCUAUGG
RNA 2: GGGAAUGGAUCCACAUCUACGAAUUCGUACCAUAGAGAGGUUAUCCGCUCGUACCGAGAUCGGAAGAGCACACGU
B17: target 1 A1G,A16G (mixed)
RNA 1: CACCCGUGCAAAAAUGCAGGGGUCUAAAACUGAGCGGAUAACCUCUCUAUGG
RNA 2: GGGAAUGGAUCCACAUCUACGAAUUCGUACCAUAGGGAGGUUAUCCGCUCGCCGAGAUCGGAAGAGCACACGU
B18: target 1 insG 3' of 10,insC 3' of 10 (mixed)
RNA 1: CACCCGUGCAAAAAUGCAGGGGUCUAAAACUGAGCGGAUAACCUCUCUAUGG
RNA 2: GGGAAUGGAUCCACAUCUACGAAUUCGUACCAUAGAGAGGUUGCAUCCGCUCACCGAGAUCGGAAGAGCACACGU
B19: target 1 insG 3' of 10,insG 3' of 1 (mixed)
RNA 1: CACCCGUGCAAAAAUGCAGGGGUCUAAAACUGAGCGGAUAACCUCUCUAUGG
RNA 2: GGGAAUGGAUCCACAUCUACGAAUUCGUACCAUAGAGAGGUUGAUCCGCUCAGCCGAGAUCGGAAGAGCACACGU
B20: target 1 insG 3' of 22,insC 3' of 19 (mixed)
RNA 1: CACCCGUGCAAAAAUGCAGGGGUCUAAAACUGAGCGGAUAACCUCUCUAUGG
RNA 2: GGGAAUGGAUCCACAUCUACGAAUUCGUACGCAUCAGAGAGGUUAUCCGCUCACCGAGAUCGGAAGAGCACACGU
B21: target 1 insU 3' of 2,insU 3' of 2 (mixed)
RNA 1: CACCCGUGCAAAAAUGCAGGGGUCUAAAACUGAGCGGAUAACCUCUCUAUGG
RNA 2: GGGAAUGGAUCCACAUCUACGAAUUCGUACCAUAGAGAGGUUAUCCGCUCUUACCGAGAUCGGAAGAGCACACGU
B22: target 1 C6U,C22G (mixed)
RNA 1: CACCCGUGCAAAAAUGCAGGGGUCUAAAACUGAGCGGAUAACCUCUCUAUGG
RNA 2: GGGAAUGGAUCCACAUCUACGAAUUCGUAGCAUAGAGAGGUUAUCUGCUCACCGAGAUCGGAAGAGCACACGU
B23: target 1 U19A,A20C (mixed)
RNA 1: CACCCGUGCAAAAAUGCAGGGGUCUAAAACUGAGCGGAUAACCUCUCUAUGG
RNA 2: GGGAAUGGAUCCACAUCUACGAAUUCGUACCCAAGAGAGGUUAUCCGCUCACCGAGAUCGGAAGAGCACACGU
B24: target 1 insG 3' of 10,insA 3' of 2 (mixed)
RNA 1: CACCCGUGCAAAAAUGCAGGGGUCUAAAACUGAGCGGAUAACCUCUCUAUGG
RNA 2: GGGAAUGGAUCCACAUCUACGAAUUCGUACCAUAGAGAGGUUGAUCCGCUCAACCGAGAUCGGAAGAGCACACGU
B25: target 1 insG 3' of 21,insG 3' of 4 (mixed)
RNA 1: CACCCGUGCAAAAAUGCAGGGGUCUAAAACUGAGCGGAUAACCUCUCUAUGG
RNA 2: GGGAAUGGAUCCACAUCUACGAAUUCGUACCGAUAGAGAGGUUAUCCGCGUCACCGAGAUCGGAAGAGCACACGU
B26: target 1 insG 3' of 18,insG 3' of 2 (mixed)
RNA 1: CACCCGUGCAAAAAUGCAGGGGUCUAAAACUGAGCGGAUAACCUCUCUAUGG
RNA 2: GGGAAUGGAUCCACAUCUACGAAUUCGUACCAUAGGAGAGGUUAUCCGCUCGACCGAGAUCGGAAGAGCACACGU
B27: target 1 U3A,A18U (mixed)
RNA 1: CACCCGUGCAAAAAUGCAGGGGUCUAAAACUGAGCGGAUAACCUCUCUAUGG
RNA 2: GGGAAUGGAUCCACAUCUACGAAUUCGUACCAUUGAGAGGUUAUCCGCACACCGAGAUCGGAAGAGCACACGU
B28: target 1 insC 3' of 20,insA 3' of 2 (mixed)
RNA 1: CACCCGUGCAAAAAUGCAGGGGUCUAAAACUGAGCGGAUAACCUCUCUAUGG
RNA 2: GGGAAUGGAUCCACAUCUACGAAUUCGUACCACUAGAGAGGUUAUCCGCUCAACCGAGAUCGGAAGAGCACACGU

Each binder was assayed against T1, EsCas13d, nuclease-dead (assay: crRNA (strand 1, pre-loaded); Mg2+; 40 mM Tris-HCl pH 7.5, 150 mM NaCl, 6 mM MgCl2, 1 mM DTT, 0.1% Tween-20, 0.2 mg/ml BSA; 25 C; 10 min per concentration, then washed). Conditions: tags: His6-TwinStrep-SUMO cleaved; N-terminal SNAP kept (SNAP-Surface 488); label: 3' end held by stalled T7 RNA polymerase.
B1 gave a Kd of 42 ± 5 nM. For B2, the Kd was about 50 nM. For B3, the Kd was 50 ± 5 nM. With B4 the Kd was 20.6 ± 1.6 nM. Binder B5 has a Kd of 71 ± 17 nM. Work on B6 yielded a Kd of 45 ± 10 nM. Binder B7 has a Kd of 42 ± 5 nM. Binder B8 has a Kd of 15.3 ± 2 nM. With B9 the Kd was 8.1 ± 0.4 nM. With B10 the Kd was 11.4 ± 0.8 nM. Work on B11 yielded a Kd of 41 ± 7 nM. For B12, the Kd was 13.2 ± 0.9 nM. With B13 the Kd was 6.5 ± 0.4 nM. B14 was tested, and the Kd was 26.8 ± 2.5 nM. For B15, the Kd was 33 ± 5 nM. B16 gave a Kd of 8.9 ± 0.9 nM. Work on B17 yielded a Kd of 32.2 ± 3 nM. Binder B18 has a Kd of 23.5 ± 1.7 nM. For B19, the Kd was 22.5 ± 2 nM. Work on B20 yielded a Kd of 52 ± 8 nM. B21 was tested, and the Kd was 9.6 ± 0.7 nM. B22 showed a Kd of 39 ± 8 nM. In the case of B23, the Kd is reported as 45 ± 6 nM. B24 showed a Kd of 22.2 ± 1.4 nM. Work on B25 yielded a Kd of 51 ± 11 nM. For B26, the Kd was about 70 nM. Work on B27 yielded a Kd of 33 ± 5 nM. With B28 the Kd was 10 ± 0.6 nM.
